Source: PMC11414720

Biological target: TMED2 (overexpressed) (UniProt Q15363)
Test: SEC; gel filtration of overexpressed protein in octyl-β-glucoside, a harsher detergent

Chain of TMED2 (overexpressed), Q15363 21-201 (receptor; other documents disagree on this pair) (Q15363 21-201): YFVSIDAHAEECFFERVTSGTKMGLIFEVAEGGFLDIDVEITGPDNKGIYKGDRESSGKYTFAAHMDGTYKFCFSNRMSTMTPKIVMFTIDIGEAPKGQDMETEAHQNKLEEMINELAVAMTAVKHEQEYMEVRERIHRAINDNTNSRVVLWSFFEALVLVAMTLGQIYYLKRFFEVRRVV

TMED2 (overexpressed), Q15363 21-201 (receptor; other documents disagree on this pair)
stoichiometry N: 2
